Laboratory results taken from patent publication US20060024786A1, “WASP and N-WASP constructs and methods of expressing such constructs” (Cytokinetics, Inc., priority 2004, published 2006).

B1: 213 miniWASP: amino acid residues 213-308 and 415-501 of full length WASP (SEQ ID NO:2) (protein, listed as Homo sapiens)
chain: RGLPAPGPSPADKKRSGKKKISKADIGAPSGFKHVSHVGWDPQNGFDVNNLDPDLRSLFSRAGISEAQLTDAETSKLIYDFIEDQGGLEAVRQEMRLPPALVPAGGLAPGGGRGALLDQIRQGIQLNKTPGAPESSALQPPPQSSEGLVGALMHVMQKRSRAIHSSDEGEDQAGDEDEDDEWD
modifications: (1)..(502) FL-WASP
B2: FL-N-WASP: full-length N-WASP, SEQ ID NO:4; expressed TAP-tagged in human 293 cells (protein, listed as Homo sapiens)
chain: MSSVQQQPPPPRRVTNVGSLLLTPQENESLFTFLGKKCVTMSSAVVQLYAADRNCMWSKKCSGVACLVKDNPQRSYFLRIFDIKDGKLLWEQELYNNFVYNSPRGYFHTFAGDTCQVALNFANEEEAKKFRKAVTDLLGRRQRKSEKRRDPPNGPNLPMATVDIKNPEITTNRFYGPQVNNISHTKEKKKGKAKKKRLTKADIGTPSNFQHIGHVGWDPNTGFDLNNLDPELKNLFDMCGISEAQLKDRETSKVIYDFIEKTGGVEAVKNELRRQAPPPPPPSRGGPPPPPPPPHNSGPPPPPARGRGAPPPPPSRAPTAAPPPPPPSRPSVAVPPPPPNRMYPPPPPALPSSAPSGPPPPPPSVLGVGPVAPPPPPPPPPPPGPPPPPGLPSDGDHQVPTTAGNKAALLDQIREGAQLKKVEQNSRPVSCSGRDALLDQIRQGIQLKSVADGQESTPPTPAPTSGIVGALMEVMQKRSKAIHSSDEDEDEDDEEDFEDDDEWED
modifications: TAP tag; (1)..(505) FL-N-WASP
notes: expressed TAP-tagged in human 293 cells
B3: 98 N-WASP: N-WASP deletion mutant, amino acids 98-501 of SEQ ID NO:4; SEQ ID NO:12 (protein, listed as Homo sapiens)
chain: FVYNSPRGYFHTFAGDTCQVALNFANEEEAKKFRKAVTDLLGRRQRKSEKRRDPPNGPNLPMATVDIKNPEITTNRFYGPQVNNISHTKEKKKGKAKKKRLTKADIGTPSNFQHIGHVGWDPNTGFDLNNLDPELKNLFDMCGISEAQLKDRETSKVIYDFIEKTGGVEAVKNELRRQAPPPPPPSRGGPPPPPPPPHNSGPPPPPARGRGAPPPPPSRAPTAAPPPPPPSRPSVAVPPPPPNRMYPPPPPALPSSAPSGPPPPPPSVLGVGPVAPPPPPPPPPPPGPPPPPGLPSDGDHQVPTTAGNKAALLDQIREGAQLKKVEQNSRPVSCSGRDALLDQIRQGIQLKSVADGQESTPPTPAPTSGIVGALMEVMQKRSKAIHSSDEDEDEDDEEDFEDDDEWED
modifications: (1)..(408) 98N-WASP
B4: 199 miniWASP: residues 199-308 and 415-501 of SEQ ID NO:2 (protein, listed as Homo sapiens)
chain: TVDIQNPDITSSRYRGLPAPGPSPADKKRSGKKKISKADIGAPSGFKHVSHVGWDPQNGFDVNNLDPDLRSLFSRAGISEAQLTDAETSKLIYDFIEDQGGLEAVRQEMRLPPALVPAGGLAPGGGRGALLDQIRQGIQLNKTPGAPESSALQPPPQSSEGLVGALMHVMQKRSRAIHSSDEGEDQAGDEDEDDEWD
modifications: (1)..(502) FL-WASP
B5: 105WASP: WASP deletion mutant lacking the WH1 domain, amino acids 105-501; SEQ ID NO:10 (protein, listed as Homo sapiens)
chain: LVYSTPTPFFHTFAGDDCQAGLNFADEDEAQAFRALVQEKIQKRNQRQSGDRRQLPPPPTPANEERRGGLPPLPLHPGGDQGGPPVGPLSLGLATVDIQNPDITSSRYRGLPAPGPSPADKKRSGKKKISKADIGAPSGFKHVSHVGWDPQNGFDVNNLDPDLRSLFSRAGISEAQLTDAETSKLIYDFIEDQGGLEAVRQEMRRQEPLPPPPPPSRGGNQLPRPPIVGGNKGRSGPLPPVPLGIAPPPPTPRGPPPPGRGGPPPPPPPATGRSGPLPPPPPGAGGPPMPPPPPPPPPPPSSGNGPAPPPLPPALVPAGGLAPGGGRGALLDQIRQGIQLNKTPGAPESSALQPPPQSSEGLVGALMHVMQKRSRAIHSSDEGEDQAGDEDEDDEWDD
modifications: (1)..(398) 105WASP

Experiments:
[1] = biological target: T1, Cdc42, PIP2, Nck and Rac1 (Homo sapiens, UniProt P60953, G12V); experiment: Regulation of WASP/N-WASP proteins by upstream regulators; assay type: biochemical; conditions: Cdc42 binds and activates the construct, which then activates Arp2/3 nucleation
T1 construct: made in house; host or cells: E. coli BL21(DE3) or BL21 STAR
Source text: (§1) A second class of WASP and N-WASP proteins are those in which the WH-1 and PolyPro region have been at least partially removed. Specific examples of WASP and N-WASP proteins lacking at least a part or all of the WH1 and PolyPro regions include, but are not limited to, 213 miniWASP, 199 miniWASP and 105 miniWASP (see, FIGS. 3A and 3B). These three proteins each lack some or all of the WH-1 region, and the entire PolyPro region (approximately residues 309-414 of SEQ ID NO:2). The 213 miniWASP protein thus includes, for example, amino acid residues 213-308 and 415-501 from the full length WASP sequence (SEQ ID NO:2). 199 miniWASP includes residues 199-308 and 415-501 of SEQ ID NO:2). 105 miniWASP includes residues 105-308 and 415-501 of SEQ ID NO:2).
(§2) A fourth class of WASP and N-WASP proteins that are provided are deletion mutants in which the PolyPro region is maintained but an N-terminal region (e.g., WH1 domain) is at least partially removed. Some proteins in this class are ones that include the B, CRIB/GBD, PolyPro and VCA domains but in which some or all of the WH1 has been removed. One specific example is 98N-WASP, which includes amino acids 98-501 of SEQ ID NO:4 (also assigned SEQ ID NO:12). Another specific example is the 105 WASP protein, which includes amino acids 105-501 of SEQ ID NO:10 (see FIG. 3A and 3B). […] They can also activate actin nucleation by Arp2/3.

Arp2/3 complex = biological target: T2, Arp2/3 complex; experiment: Arp2/3-mediated actin polymerization stimulated by WASP/N-WASP proteins; assay type: biochemical, human; conditions: for Activate Arp2/3?: Table 2
T2 construct: prepared from an Arp2/3 source such as human platelets; from tissue; host or cells: cell extract, e.g. human platelets
Protocol: Samples containing candidate agents (individually or as mixtures) are placed into wells on a multi-well plate. Mix 1 is added to each of the wells and mixed with the candidate agent. A sample of Mix 2 is then introduced into each well and the resulting mixture thoroughly mixed. Typically, Mix 1 and Mix 2 are mixed in 1:1 ratio (e.g., 50 μl each of Mix 1 and Mix 2).
Actin polymerization is measured as a function of time by exciting pyrene at 365 nm and by detecting an increase in fluorescence emission at 407 nm. The change in fluorescence over time is utilized to determine a fluorescence parameter (e.g., maximal velocity, time to half maximal fluorescence intensity or area under the curve of a plot of fluorescence versus time).
In a second set of experiments, the ability of various truncated forms of WASP were compared to the activity of the full-length protein. The polymerization assays were conducted in the presence of 500 nM Cdc42, 2.5 nm purified Arp2/3 complex and 3.5 μM actin. FL-WASP, 105 WASP and the VCA (see Example 7) domain were tested. The results of these trials were plotted to obtain EC50 values. The results are provided in FIG. 6 and in the chart below.

[2] = Solubility of purified full-length protein; assay type: physicochemical; conditions: expressed in 293 cells, TAP-tag purification
[3] = system: Cdc42, PIP2, Nck and Rac1; experiment: Regulation of WASP/N-WASP proteins by upstream regulators; assay type: biochemical; conditions: Table 2
Source text: as §1, §2

T1 sequence (P60953 2-191 isoform P60953-1 G12V): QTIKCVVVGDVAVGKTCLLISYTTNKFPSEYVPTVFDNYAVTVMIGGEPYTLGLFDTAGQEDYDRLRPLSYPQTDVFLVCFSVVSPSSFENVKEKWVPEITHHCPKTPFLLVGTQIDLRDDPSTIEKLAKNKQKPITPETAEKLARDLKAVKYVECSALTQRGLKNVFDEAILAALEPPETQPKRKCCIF

| Molecule | regulation by Cdc42 [1] | Activate Arp2/3? (Arp2/3 complex) | Regulated By Which Upstream Regulators? [3] | also measured |
| --- | --- | --- | --- | --- |
| B1 | regulated by Cdc42 |  |  |  |
| B2 |  |  |  | stimulation of actin polymerization by the protein by itself (Arp2/3 complex; without upstream regulators, FIG. 5): only weakly stimulate actin polymerization; solubility of purified protein [2]: completely soluble |
| B3 |  | Yes | Cdc42, PIP2, Nck and Rac1 |  |
| B4 | regulated by Cdc42 |  |  |  |
| B5 |  | Yes | Cdc42, PIP2, Nck and Rac1 |  |
